Assay results: the supplement of paper PMC5998384

Tests used:
HeLa Kyoto [1] = assay: solubility in G1/S (NP-40 vs SDS abundance) (log2 ratio); higher = more soluble; conditions: cell cycle stage: G1/S
HeLa Kyoto [2] = assay: melting temperature (median over replicates), in situ; higher = more thermally stable
HeLa Kyoto [3] = assay: solubility change mitosis vs G1/S (difference of NP-40 vs SDS log2 ratios) (log2 ratio difference); higher = more soluble in mitosis
HeLa Kyoto [4] = assay: thermal stability score vs G1/S (z-score of summed log2 fold changes over temperatures); higher = more thermally stable than in G1/S
[5] = cell cycle stage: early G1 (4.5 h after nocodazole release)
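Throughout, for melting temperature (median over replicates), in situ: HeLa Kyoto cells synchronized by double thymidine or nocodazole block, proteins quantified by TMT10plex mass spectrometry, three independent biological replicates.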
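Throughout, for solubility change mitosis vs G1/S (difference of NP-40 vs SDS log2 ratios): synchronized HeLa Kyoto cells (double thymidine block for G1/S, nocodazole release for mitosis), protein amounts in NP-40 versus SDS lysates quantified by mass spectrometry, three biological replicates.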
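Throughout, for solubility in G1/S (NP-40 vs SDS abundance): HeLa Kyoto cells arrested at G1/S by double thymidine block, proteins quantified by TMT10plex mass spectrometry in mild NP-40 versus SDS extracts, three biological replicates.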
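Throughout, for thermal stability score vs G1/S (z-score of summed log2 fold changes over temperatures): synchronized HeLa Kyoto cells, proteins quantified by TMT10plex mass spectrometry, three biological replicates, mitosis taken 0.5 h after nocodazole release, G1/S directly after double thymidine block.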

| Sequence | solubility in G1/S (log2) (HeLa Kyoto [1]) | melting temperature (HeLa Kyoto [2]; cell cycle stage: G1/S) [°C] | melting temperature (HeLa Kyoto [2]; cell cycle stage: mitosis) [°C] | solubility change mitosis (log2) (HeLa Kyoto [3]) | thermal stability score (HeLa Kyoto [4]; [5]) | thermal stability score (HeLa Kyoto [4]; cell cycle stage: mitosis) |
| --- | --- | --- | --- | --- | --- | --- |
| MGKVRGLRARVHQAAVRPKGEAAPGPAPPAPEATPPPASAAGKDWAFINTNIFARTKIDPSALVQKLELDVRSVTSVRRGEAGSSARSVPSIRRGAEAKTVLPKKEKMKLRREQWLQKIEAIKLAEQKHREERRRRATVVVGDLHPLRDALPELLGLEAGSRRQARSRESNKPRPSELSRMSAAQRQQLLEEERTRFQELLASPAYRASPLVAIGQTLARQMQLEDGGQL [FAM207A] | -0.11 | 48.3 | 48.5 | 0.342 | 0.13 | 0.618 |
| MVWDRQTKMEYEWKPDEQGLQQILQLLKESQSPDTTIQRTVQQKLEQLNQYPDFNNYLIFVLTKLKSEDEPTRSLSGLILKNNVKAHFQNFPNGVTDFIKSECLNNIGDSSPLIRATVGILITTIASKGELQNWPDLLPKLCSLLDSEDYNTCEGAFGALQKICEDSAEILDSDVLDRPLNIMIPKFLQFFKHSSPKIRSHAVACVNQFIISRTQALMLHIDSFIENLFALAGDEEPEVRKNVCRALVMLLEVRMDRLLPHMHNIVEYMLQRTQDQDENVALEACEFWLTLAEQPICKDVLVRHLPKLIPVLVNGMKYSDIDIILLKGDVEEDETIPDSEQDIRPRFHRSRTVAQQHDEDGIEEEDDDDDEIDDDDTISDWNLRKCSAAALDVLANVYRDELLPHILPLLKELLFHHEWVVKESGILVLGAIAEGCMQGMIPYLPELIPHLIQCLSDKKALVRSITCWTLSRYAHWVVSQPPDTYLKPLMTELLKRILDSNKRVQEAACSAFATLEEEACTELVPYLAYILDTLVFAFSKYQHKNLLILYDAIGTLADSVGHHLNKPEYIQMLMPPLIQKWNMLKDEDKDLFPLLECLSSVATALQSGFLPYCEPVYQRCVNLVQKTLAQAMLNNAQPDQYEAPDKDFMIVALDLLSGLAEGLGGNIEQLVARSNILTLMYQCMQDKMPEVRQSSFALLGDLTKACFQHVKPCIADFMPILGTNLNPEFISVCNNATWAIGEISIQMGIEMQPYIPMVLHQLVEIINRPNTPKTLLENTAITIGRLGYVCPQEVAPMLQQFIRPWCTSLRNIRDNEEKDSAFRGICTMISVNPSGVIQDFIFFCDAVASWINPKDDLRDMFCKILHGFKNQVGDENWRRFSDQFPLPLKERLAAFYGV [TNPO1] | -0.146 | 50.3 | 49.7 | -0.175 | 1.15 | -1.3 |
| MAMLRVQPEAQAKVDVFREDLCTKTENLLGSYFPKKISELDAFLKEPALNEANLSNLKAPLDIPVPDPVKEKEKEERKKQQEKEDKDEKKKGEDEDKGPPCGPVNCNEKIVVLLQRLKPEIKDVIEQLNLVTTWLQLQIPRIEDGNNFGVAVQEKVFELMTSLHTKLEGFHTQISKYFSERGDAVTKAAKQPHVGDYRQLVHELDEAEYRDIRLMVMEIRNAYAVLYDIILKNFEKLKKPRGETKGMIY [PSME1] | 0.819 | 52.4 | 53.8 | 0.0323 | -2.91 | -1.23 |
| MFRRPVLQVLRQFVRHESETTTSLVLERSLNRVHLLGRVGQDPVLRQVEGKNPVTIFSLATNEMWRSGDSEVYQLGDVSQKTTWHRISVFRPGLRDVAYQYVKKGSRIYLEGKIDYGEYMDKNNVRRQATTIIADNIIFLSDQTKEKE [SSBP1] | 0.0755 | 59.5 | 59.6 | 0.0149 | 0.62 | -1.51 |
| MADGPRCKRRKQANPRRNNVTNYNTVVETNSDSDDEDKLHIVEEESVTDAADCEGVPEDDLPTDQTVLPGRSSEREGNAKNCWEDDRKEGQEILGPEAQADEAGCTVKDDECESDAENEQNHDPNVEEFLQQQDTAVIFPEAPEEDQRQGTPEASGHDENGTPDAFSQLLTCPYCDRGYKRFTSLKEHIKYRHEKNEDNFSCSLCSYTFAYRTQLERHMTSHKSGRDQRHVTQSGCNRKFKCTECGKAFKYKHHLKEHLRIHSGEKPYECPNCKKRFSHSGSYSSHISSKKCISLIPVNGRPRTGLKTSQCSSPSLSASPGSPTRPQIRQKIENKPLQEQLSVNQIKTEPVDYEFKPIVVASGINCSTPLQNGVFTGGGPLQATSSPQGMVQAVVLPTVGLVSPISINLSDIQNVLKVAVDGNVIRQVLENNQANLASKEQETINASPIQQGGHSVISAISLPLVDQDGTTKIIINYSLEQPSQLQVVPQNLKKENPVATNSCKSEKLPEDLTVKSEKDKSFEGGVNDSTCLLCDDCPGDINALPELKHYDLKQPTQPPPLPAAEAEKPESSVSSATGDGNLSPSQPPLKNLLSLLKAYYALNAQPSAEELSKIADSVNLPLDVVKKWFEKMQAGQISVQSSEPSSPEPGKVNIPAKNNDQPQSANANEPQDSTVNLQSPLKMTNSPVLPVGSTTNGSRSSTPSPSPLNLSSSRNTQGYLYTAEGAQEEPQVEPLDLSLPKQQGELLERSTITSVYQNSVYSVQEEPLNLSCAKKEPQKDSCVTDSEPVVNVIPPSANPINIAIPTVTAQLPTIVAIADQNSVPCLRALAANKQTILIPQVAYTYSTTVSPAVQEPPLKVIQPNGNQDERQDTSSEGVSNVEDQNDSDSTPPKKKMRKTENGMYACDLCDKIFQKSSSLLRHKYEHTGKRPHECGICKKAFKHKHHLIEHMRLHSGEKPYQCDKCGKRFSHSGSYSQHMNHRYSYCKREAEERDSTEQEEAGPEILSNEHVGARASPSQGDSDERESLTREEDEDSEKEEEEEDKEMEELQEEKECEKPQGDEEEEEEEEEVEEEEVEEAENEGEEAKTEGLMKDDRAESQASSLGQKVGESSEQVSEEKTNEA [ZEB1] | -0.154 | 52.8 | 53.9 | -0.0271 | -0.796 | 2.75 |
